Measured values taken from patent US8703915B2, “Mutant proteins and methods for producing them” (Heptares Therapeutics Limited, priority 2009, dated 2014).
Numbering of substitutions follows the chain as printed. Names may count otherwise.

T1: CRF1 (Homo sapiens, UniProt P34998, I163A)
T1 construct: made in house; host or cells: HEK293T cells, transient
T1 sequence (P34998 24-415 I163A): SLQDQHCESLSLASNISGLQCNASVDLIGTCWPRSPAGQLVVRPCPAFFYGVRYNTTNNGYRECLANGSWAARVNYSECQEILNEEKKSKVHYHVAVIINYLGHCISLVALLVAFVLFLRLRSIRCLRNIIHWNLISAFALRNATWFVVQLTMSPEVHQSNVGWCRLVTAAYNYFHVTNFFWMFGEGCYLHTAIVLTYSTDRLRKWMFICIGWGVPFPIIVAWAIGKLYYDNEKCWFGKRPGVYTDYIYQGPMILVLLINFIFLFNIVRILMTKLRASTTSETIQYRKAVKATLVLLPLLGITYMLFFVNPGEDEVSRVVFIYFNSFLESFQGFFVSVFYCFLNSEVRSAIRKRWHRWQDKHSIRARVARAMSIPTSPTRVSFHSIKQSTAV

T2: OX2 receptor (Homo sapiens, UniProt O43614, F28L/I308V/Y91L)
T2 construct: made in house; host or cells: transiently transfected mammalian cells (HEK293T inferred from 'as described for M4')
T2 sequence (O43614 1-444 F28L/Y91L/I308V): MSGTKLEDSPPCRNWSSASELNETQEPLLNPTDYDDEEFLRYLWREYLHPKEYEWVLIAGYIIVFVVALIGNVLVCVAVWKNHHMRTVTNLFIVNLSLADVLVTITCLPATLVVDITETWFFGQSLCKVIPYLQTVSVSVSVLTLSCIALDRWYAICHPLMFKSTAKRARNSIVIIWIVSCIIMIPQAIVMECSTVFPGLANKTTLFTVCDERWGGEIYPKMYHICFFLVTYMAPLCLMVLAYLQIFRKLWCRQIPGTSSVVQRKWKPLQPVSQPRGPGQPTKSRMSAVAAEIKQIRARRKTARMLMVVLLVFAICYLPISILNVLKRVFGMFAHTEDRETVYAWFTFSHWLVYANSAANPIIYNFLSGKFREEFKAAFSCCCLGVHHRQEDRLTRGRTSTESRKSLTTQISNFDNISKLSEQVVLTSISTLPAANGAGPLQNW

B1: CRF1 I163A: human CRF1 mutant, I2.58 to alanine (I163A) (protein, UniProt P34998 24-415, looked up, variant I163A)
Corticotropin-releasing …: T1 sequence (P34998 24-415 I163A)
B2: OX2Y91L (protein, UniProt O43614 1-444, looked up, variant Y91L)
Orexin receptor type 2: T2 sequence (O43614 1-444 F28L/Y91L/I308V) with L28F, V308I

What was measured:
[1] = tested on: CRF1; assay: Thermostability of CRF1 bound to antagonist CP-376395, purified in DDM; type: physicochemical, human; settings: antagonist-bound state (CP-376395), purified in DDM
Description: (§1) In order to stabilise CRF1 in the antagonist conformation, a systematic alanine-scan was performed to identify mutations that stabilise receptors bound to the antagonist ligand CP-376395. Mutating I2.58 to alanine (I163A) confers significant stabilisation in CRF1, increasing the thermal stability by 3.9 (±0.5)° C. (FIG. 15).
(§2) CRF1 receptors were transiently expressed in HEK293T cells on 10 cm plates using GeneJuice transfection reagent used according to manufacturers guidelines.
(§3) Cells expressing CRF1 were harvested in PBS approximately 40 hours post-transfection and re-suspended in 950 μl Re-suspension buffer (50 mM Tris-HCl, 150 mM NaCl, 2× Complete EDTA-free Protease inhibitor cocktail (Roche), pH7.5). Cells were incubated with 120 nM CP-376395 and 30 nM [^3H]-CP-376395 at 37° C. for 2 hours before transferring to ice for 5 minutes. The receptors were solubilised by the addition of 1% DDM and incubated at 4° C. for 1 hour with gentle agitation. Insoluble material was removed by centrifugation at 16000×g for 10 minutes at 4° C. The solubilised receptors were partially purified with Ni-NTA agarose (Qiagen). Ni-NTA resin was equilibrated in Equilibration buffer (50 mM Tris-HCl, 150 mM NaCl, 2× Complete EDTA-free Protease inhibitor cocktail (Roche), 0.025% DDM, pH7.5) and 400 μl of a 50:50 resin slurry was added to each sample. Resin slurries were incubated at 4° C. for 1 hour 30 minutes with gentle agitation to bind receptors. Resin slurries were then transferred to a batch column filter plate (Chromabond) and centrifuged at 1000×g for 1 minute, discarding the flow-through. Resin was washed twice with 1 ml of Wash buffer (50 mM Tris-HCl, 150 mM NaCl, 2× Complete EDTA-free Protease inhibitor cocktail (Roche), 0.025% DDM, 20 mM Imidazole, pH7.5) and then eluted in 1 ml of Elution buffer (50 mM Tris-HCl, 150 mM NaCl, 2× Complete EDTA-free Protease inhibitor cocktail (Roche), 0.025% DDM, 100 mM histidine, 30 nM [^3H]-CP-376395, 120 nM CP-376395, pH7.5) by resuspension at 4° C. for 30 minutes. Eluted samples were used directly in the thermostability assay. […]

[2] = biological target: T1, CRF1; assay: as above; type: physicochemical; settings: antagonist CP-376395 bound, versus CRF1 WT
Description: as §1, §2, §3

[3] = biological target: T2, OX2 receptor; assay: Thermostability of OX2 receptor bound to antagonist EMPA; type: physicochemical; settings: antagonist EMPA bound, compared to WT OX2
Description: (§4) Transiently transfected mammalian cells expressing M4 were harvested about 40 hours post transfection and the receptors were solubilised in 50 mM Tris pH 7.5/250 mM NaCl/1% DDM/EDTA free protease inhibitor mix for 1 hour rotating at 4° C. The solubilised lysate was then cleared by centrifugation at 13000 rpm for 15 minutes at 4° C. The solubilised receptors were then purified on Ni-NTA beads and eluted with 100 mM histidine. The eluted receptor was used in radioligand binding assay. Thermostability of M4 was measured using 25 μL of purified receptor mixed with 95 μL of 12 nM [^3H]-NMS (final concentration of 10 nM). The sample was incubated for 60 min at 4° C., then 30 min at the specified temperature and then 30 min at 4° C. Receptor bound and free radioligand were separated using a 96-well plate gel filtration assay.
(§5) A tandem alanine and leucine scanning mutagenesis strategy was used to identify mutations that enhanced the thermostability of OX2 bound to the small-molecule antagonist EMPA.
(§6) Thermostability assays were preformed on partially purified receptors as described for M4, with the following amendments. Cell lysates were solubilised in 50 mM Tris pH7.4, 150 mM NaCl, 1% DDM supplemented with 1× complete EDTA free protease inhibitor cocktail (Roche). Radioligand binding reactions were set up using 1/10 volume eluted receptor mixed with 20 nM ^3H-EMPA (final concentration) per temperature point.

[4] = tested on: OX2 receptor; assay: as above; type: physicochemical, human; settings: bound to antagonist EMPA
Description: as §4, §5, §6

Molecule | Tm [1] [°C] | increase of thermal stability [2] | increase of Tm [3] [°C] | Tm [4] [°C]
B1 | 30.7 | 3.9 (±0.5) ° C. | – | –
B2 | – | – | 1 | 29.69
